Values quoted from earlier work in article PMC6347146.
pKd: −log10 of the molar value.

Biological target: IL-21R (Homo sapiens) (UniProt Q9HBE5)
Chain of UniProt Q9HBE5 (Q9HBE5 20-232): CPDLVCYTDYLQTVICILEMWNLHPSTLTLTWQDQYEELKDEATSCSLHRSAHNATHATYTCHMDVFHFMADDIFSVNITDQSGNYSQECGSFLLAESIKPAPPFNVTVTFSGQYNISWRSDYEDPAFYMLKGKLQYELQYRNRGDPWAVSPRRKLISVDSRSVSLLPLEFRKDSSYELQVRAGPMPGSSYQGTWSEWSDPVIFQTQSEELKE

IL-21 (from UniProt Q9HBE4)
pKd: 10.15
